What follows are substances tested against mucosa-associated lymphoid tissue lymphoma translocation protein 1 (UniProt Q9UDY8) (assay: enzyme inhibition assay, 100 nM MALT1).
Chain of mucosa-associated lymphoid tissue lymphoma translocation protein 1 (Q9UDY8 340-789): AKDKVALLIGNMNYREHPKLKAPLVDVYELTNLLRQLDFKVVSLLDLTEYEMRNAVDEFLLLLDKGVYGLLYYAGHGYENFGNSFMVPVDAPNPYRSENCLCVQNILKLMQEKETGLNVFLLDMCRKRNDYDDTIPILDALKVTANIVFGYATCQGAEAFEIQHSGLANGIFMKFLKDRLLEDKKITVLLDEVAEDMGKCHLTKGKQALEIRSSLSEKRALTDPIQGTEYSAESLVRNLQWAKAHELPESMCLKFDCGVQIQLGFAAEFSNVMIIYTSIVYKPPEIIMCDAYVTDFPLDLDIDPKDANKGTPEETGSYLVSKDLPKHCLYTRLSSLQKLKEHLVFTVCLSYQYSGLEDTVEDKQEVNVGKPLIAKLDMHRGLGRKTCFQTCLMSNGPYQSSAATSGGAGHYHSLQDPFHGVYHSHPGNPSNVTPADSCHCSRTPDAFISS

Substance	Ki
Benzyl ((S)-1-((S)-2-(((S)-1-fluoro-6-guanidino-2-oxohexan-3-yl)carbamoyl)pyrrolidin-1-yl)-4-methyl-1-oxopentan-2-yl)carbamate (peptide)	93 nM
Benzyl ((S)-1-cyclohexyl-2-((S)-2-(((S)-1-fluoro-6-guanidino-2-oxohexan-3-yl)carbamoyl)piperidin-1-yl)-2-oxoethyl)carbamate (peptide)	37 nM
Benzyl ((S)-1-cyclohexyl-2-((S)-2-(((S)-1-fluoro-6-guanidino-2-oxohexan-3-yl)carbamoyl)pyrrolidin-1-yl)-2-oxoethyl)carbamate (peptide)	44 nM
Benzyl ((S)-2-((S)-2-(((S)-1-fluoro-6-guanidino-2-oxohexan-3-yl)carbamoyl)pyrrolidin-1-yl)-2-oxo-1-(pyridin-3-yl)ethyl)carbamate (peptide)	55 nM
Benzyl ((S)-2-((S)-2-(((S)-1-fluoro-6-guanidino-2-oxohexan-3-yl)carbamoyl)pyrrolidin-1-yl)-2-oxo-1-phenylethyl)carbamate (peptide)	154 nM
N-((S)-1-((S)-2-(((S)-1-Fluoro-6-guanidino-2-oxohexan-3-yl)carbamoyl)pyrrolidin-1-yl)-3-methyl-1-oxobutan-2-yl)-1-methyl-1H-pyrazole-4-carboxamide (peptide)	100 nM
N-((S)-1-((S)-2-(((S)-1-Fluoro-6-guanidino-2-oxohexan-3-yl)carbamoyl)pyrrolidin-1-yl)-3-methyl-1-oxobutan-2-yl)-2-methylthiazole-4-carboxamide (peptide)	52 nM
N-((S)-1-((S)-2-(((S)-1-Fluoro-6-guanidino-2-oxohexan-3-yl)carbamoyl)pyrrolidin-1-yl)-3-methyl-1-oxobutan-2-yl)-2-morpholinothiazole-4-carboxamide (peptide)	111 nM
N-((S)-1-((S)-2-(((S)-1-fluoro-6-guanidino-2-oxohexan-3-yl)carbamoyl)pyrrolidin-1-yl)-3-methyl-1-oxobutan-2-yl)-5-phenylthiazole-2-carboxamide (peptide)	121 nM
N-((S)-1-((S)-2-(((S)-1-fluoro-6-guanidino-2-oxohexan-3-yl)carbamoyl)pyrrolidin-1-yl)-3-methyl-1-oxobutan-2-yl)isoquinoline-6-carboxamide (peptide)	59 nM
N-((S)-1-((S)-2-(((S)-1-fluoro-6-guanidino-2-oxohexan-3-yl)carbamoyl)pyrrolidin-1-yl)-3-methyl-1-oxobutan-2-yl)isoquinoline-7-carboxamide (peptide)	110 nM
N-((S)-1-((S)-2-(((S)-1-fluoro-6-guanidino-2-oxohexan-3-yl)carbamoyl)pyrrolidin-1-yl)-3-methyl-1-oxobutan-2-yl)quinoline-2-carboxamide (peptide)	55 nM
N-((S)-1-((S)-2-(((S)-1-fluoro-6-guanidino-2-oxohexan-3-yl)carbamoyl)pyrrolidin-1-yl)-3-methyl-1-oxobutan-2-yl)quinoline-3-carboxamide (peptide)	40 nM
N-((S)-1-((S)-2-(((S)-1-fluoro-6-guanidino-2-oxohexan-3-yl)carbamoyl)pyrrolidin-1-yl)-3-methyl-1-oxobutan-2-yl)quinoline-4-carboxamide (peptide)	139 nM
benzyl ((S)-1-(((S)-1-(((S)-1-fluoro-6-guanidino-2-oxohexan-3-yl)amino)-3-hydroxy-1-oxopropan-2-yl)amino)-3-methyl-1-oxobutan-2-yl)carbamate (peptide)	64 nM

Reference: patent US20180251489A1
